In US20240327477A1, “COMPOSITIONS AND METHODS FOR THE TREATMENT OF TDP-43 PROTEINOPATHIES” (SOLA BIOSCIENCES LLC, priority 2020, published 2024):
Values belong to the molecule of their own block, whether it stands above or below them.

Legend:
Format in all cases: cell-based
[1] = molecular target: T1, phosphorylated GFP-TDP43CTF reporter (Homo sapiens, UniProt Q13148); experiment: Immunoblot with anti-phospho TDP43 antibody (cell extracts and fractions); details: cell extracts, anti-phosphoTDP43 antibody, Table 13 (FIG. 12)
T1 construct: expressed in transfected cells; host or cells: HEK293

[2] = molecular target: T1, phosphorylated GFP-TDP43CTF reporter; experiment: as above
Description: Cells expressing either GFP-TDP43FL (lanes 1 and 7) or GFP-TDP43CTF (lanes 2-6, 8-12) were co-transfected with Construct 3 (lanes 3 and 9), Construct 17 (lanes 4 and 10), Construct 18 (lanes 5 and 11) and Construct 19 (lanes 6 and 12). Soluble fractions (lanes 1-6) and insoluble fractions (lanes 7-12) were probed with anti-phospho TDP43 antibodies.
(§1) Expression vector plasmids encoding various protein constructs were transfected into HEK293 cells with Lipofectamine 3000 transfection reagent (Thermo Fisher Scientific). Cell lysates were analyzed for expressed proteins using immunoblot assays. Samples of culture media were centrifuged to remove debris prior to analysis. Cells were lysed in a lysis buffer (10 mM Tris-HCl, pH 8.0, 150 mM NaCl, 10 mM EDTA, 2% SDS) containing 2 mM PMSF and protease cocktail (Complete Protease Inhibitor Cocktail; Sigma). After brief sonication, the samples were analyzed for expressed proteins using immunoblot assays. For immunoblot analysis, samples were boiled in an SDS-sample buffer and run on polyacrylamide electrophoresis. Thereafter, the separated protein bands were transferred to a PVDF membrane.
(§2) Expressed proteins were detected using a chemiluminescent signal. Briefly, blots were reacted with a primary antibody capable of binding the particular epitope (e.g., GFP). After rinsing away the unreacted primary antibody, a secondary, enzyme-linked antibody (e.g., HRP-linked anti-lgG antibody) was allowed to react with the primary antibody molecules bound to the blots. Following rinsing, a chemiluminescent reagent was added, and the resultant chemiluminescent signals in the blots were captured on X-ray film.
Transfected HEK293 cells are homogenized in RIPA buffer (50 mM Tris, pH7.5, 150 mM NaCl, 0.1% NP-40, 0.5% sodium deoxycholate, 0.1% SDS) supplemented with protease inhibitor cocktail, 2 mM PMSF, 10 mM NaF, and 2 mM Na3VO4. After brief sonication, protein concentration is measured by BCA assay kit (Pierce). […]

GFP-TDP43FL [3] = molecular target: T2, GFP-TDP43FL (Homo sapiens, UniProt Q13148); experiment: Immunoblot (anti-GFP) of reporter level in cell extracts; details: cell extracts (FIG. 5)
T2 construct: expressed in transfected cells; host or cells: HEK293
Experimental: as §1, §2

GFP-TDP43CTF = molecular target: T3, GFP-TDP43CTF (Homo sapiens, UniProt Q13148); experiment: Fluorescence microscopy of GFP-TDP43CTF aggregation (GFP foci) in transfected HEK293 cells; details: HEK293 cells; for % Aggregation (normalized to GFP-TDP43CTF alone): GFP-TDP43CTF reporter
T3 construct: expressed in transfected cells; host or cells: HEK293
Experimental: as §1
(§3) In some instances, aggregation of TDP-43 (full-length of C-terminal fragment) GFP reporter constructs (described below) were detected in vivo using fluorescence microscopy. Cultured cells expressing the reporter constructs as well as the fusion protein comprising the J domain and TDP-43-binding domain were washed with PBS and fixed with 4% paraformaldehyde in PBS for 5 minutes. After three 5-min washes with PBS, nuclear DNA was stained with DAPI. Percentage of cells containing TDP-43 (GFP foci) in transfected cells was counted.
We first investigated whether the fusion molecule of the present invention targeting TDP-43 ameliorates its aggregation in cultured cells. To this end, we generated GFP-based reporter constructs GFP-TDP43 and GFP-TDP43, wherein GFP was fused at its C-terminus to either the full-length human TDP-43 protein or the C-terminal fragment TDP-43 which is known to form cytoplasmic aggregation and cytotoxicity (See Table 8 below). HEK293 cells were cultured and transfected with the plasmids encoding the full-length TDP43 or the C-terminal fragment of TDP43, containing the C-terminal 207 amino acids TDP-43 (amino acids 208-414 of human TDP-43) as a GFP fusion [GFP-TDP43FL (SEQ ID NO: 101) or GFP-TDP43CTF (SEQ ID NO: 102)].

GFP-TDP43FL [4] = molecular target: T2, GFP-TDP43FL; experiment: Fluorescence microscopy of GFP-TDP43FL aggregation (GFP foci) in transfected HEK293 cells; details: GFP-TDP43FL reporter, HEK293 cells, Table 10 (FIG. 3/4)
Experimental: as §1
as §3, with “counted. […]” for “counted.”

% Phospho-TDP43 density (normalized to GFP-TDP43CTF alone) [1]: 106.49%
B3: 16 (protein)
chain: MGQDYYSVLGITRNSEDAQIKQAYRRLALKHHPLKSNEPSSAEIFRQIAEAYDVLSDPMKRGIYDKFGEEGLKGGDIGGGGSGGGGSGGGGSGGGGSAAAEVQLQQSGAELVKPGASVKLSCTASGFNIKDYYMHWVKQRTEQGLEWIGRIDPEDGETKYAPKFQGKATITADTSSNTAYLQLSSLTSEDTAVYYCTIIYYYGSRYVDYWGQGTTLTVSGGGGSGGGGSGGGGSEIVLTQSPTTMAASPGEKITITCSASSSISSSYLHWYQQKPGFSPKLLIYRTSNLASGVPARFSGSGSGTSYSLTIGTMEAEDVATYYCQQGSSIPLTFGSGTKLEI

levels of the full-length reporter construct (GFP-TDP43FL), anti-GFP immunoblot (in words) (GFP-TDP43FL [3]): No differences
aggregation of GFP-TDP43CTF reporter in cells (in words) (GFP-TDP43CTF; vs reporter alone): did not reduce aggregation
B4: Construct 2: scFv(3B12A)-only control; binds TDP-43 (protein)
scFv: MGTGSEFDIAAAEVQLQQSGAELVKPGASVKLSCTASGFNIKDYYMHWVKQRTEQGLEWIGRIDPEDGETKYAPKFQGKATITADTSSNTAYLQLSSLTSEDTAVYYCTIIYYYGSRYVDYWGQGTTLTVSGGGGSGGGGSGGGGSEIVLTQSPTTMAASPGEKITITCSASSSISSSYLHWYQQKPGFSPKLLIYRTSNLASGVPARFSGSGSGTSYSLTIGTMEAEDVATYYCQQGSSIPLTFGSGTKLEI

% Aggregation (normalized to GFP-TDP43CTF alone) (GFP-TDP43CTF; Table 10 (FIG. 3/4)): 80.05%
% Aggregation (normalized to GFP-TDP43CTF alone) (GFP-TDP43CTF; Table 12 (FIG. 8/9A)): 98.40%
% Aggregation (normalized to GFP-TDP43CTF alone) (GFP-TDP43FL [4]): 5.86%
% Phospho-TDP43 density (normalized to GFP-TDP43CTF alone) [1]: 122.81%
B5: 2 (protein)
scFv: MGTGSEFDIAAAEVQLQQSGAELVKPGASVKLSCTASGFNIKDYYMHWVKQRTEQGLEWIGRIDPEDGETKYAPKFQGKATITADTSSNTAYLQLSSLTSEDTAVYYCTIIYYYGSRYVDYWGQGTTLTVSGGGGSGGGGSGGGGSEIVLTQSPTTMAASPGEKITITCSASSSISSSYLHWYQQKPGFSPKLLIYRTSNLASGVPARFSGSGSGTSYSLTIGTMEAEDVATYYCQQGSSIPLTFGSGTKLEI

% Phospho-TDP43 density (normalized to GFP-TDP43CTF alone) Insoluble fraction ([2]; insoluble fraction, Table 14 (FIG. 14)): 22.77%
% Phospho-TDP43 density (normalized to GFP-TDP43CTF alone) Soluble fraction ([2]; soluble fraction, Table 14 (FIG. 14)): 11.20%
B7: 19 (protein)
chain: MGKDYYQTLGLARGASDEEIKRAYRRQALRYHPDKNKEPGAEEKFKEIAEAYDVLSDPRKREIFDRYGEEGLKGSEVQLQQSGAELVKPGASVKLSCTASGFNIKDYYMHWVKQRTEQGLEWIGRIDPEDGETKYAPKFQGKATITADTSSNTAYLQLSSLTSEDTAVYYCTIIYYYGSRYVDYWGQGTTLTVSGGGGSGGGGSGGGGSEIVLTQSPTTMAASPGEKITITCSASSSISSSYLHWYQQKPGFSPKLLIYRTSNLASGVPARFSGSGSGTSYSLTIGTMEAEDVATYYCQQGSSIPLTFGSGTKLEI

The next lines start with the molecule.

B1: 15 (protein)
chain: MDYYKILGVDKNASEDEIKKAYRKRALMHHPDRHSGASAEVQKEEEKKFKEVGEAFTILSDPKKKTRYDSGQDIGGGGSGGGGSGGGGSGGGGSAAAEVQLQQSGAELVKPGASVKLSCTASGFNIKDYYMHWVKQRTEQGLEWIGRIDPEDGETKYAPKFQGKATITADTSSNTAYLQLSSLTSEDTAVYYCTIIYYYGSRYVDYWGQGTTLTVSGGGGSGGGGSGGGGSEIVLTQSPTTMAASPGEKITITCSASSSISSSYLHWYQQKPGFSPKLLIYRTSNLASGVPARFSGSGSGTSYSLTIGTMEAEDVATYYCQQGSSIPLTFGSGTKLEI
% Phospho-TDP43 density (normalized to GFP-TDP43CTF alone) [1]: 47.89%

B2: Construct 16: comprises a J domain without the consensus HPD sequence (SEQ ID NO: 16), fused to scFv(3B12A) (protein)
chain: MGQDYYSVLGITRNSEDAQIKQAYRRLALKHHPLKSNEPSSAEIFRQIAEAYDVLSDPMKRGIYDKFGEEGLKGGDIGGGGSGGGGSGGGGSGGGGSAAAEVQLQQSGAELVKPGASVKLSCTASGFNIKDYYMHWVKQRTEQGLEWIGRIDPEDGETKYAPKFQGKATITADTSSNTAYLQLSSLTSEDTAVYYCTIIYYYGSRYVDYWGQGTTLTVSGGGGSGGGGSGGGGSEIVLTQSPTTMAASPGEKITITCSASSSISSSYLHWYQQKPGFSPKLLIYRTSNLASGVPARFSGSGSGTSYSLTIGTMEAEDVATYYCQQGSSIPLTFGSGTKLEI
ability to reduce aggregation of the GFP-TDP43CTF reporter construct (in words, with Tables 13 and 14) ([2]; HEK293 cells): not able to reduce aggregation

B6: 11 (protein)
chain: MSVVGLDVGSQSCYIAVARAGGIETIANEFSDRCTPSVISFGSKNRTIGVAAKNQQITHANNTVSNFKRFHGRAFNDPFIQKEKENLSYDLVPLKNGGVGIKVMYMGEEHLFSVEQITAMLLTKLKETAENSLKKPVTDCVISVPSFFTDAERRSVLDAAQIVGLNCLRLMNDMTAVALNYGIYKQDLPSLDEKPRIVVFVDMGHSAFQVSACAFNKGKLKVLGTAFDPFLGGKNFDEKLVEHFCAEFKTKYKLDAKSKIRALLRLYQECEKLKKLMSSNSTDLPLNIECFMNDKDVSGKMNRSQFEELCAELLQKIEVPLYSLLEQTHLKVEDVSAVEIVGGATRIPAVKERIAKFFGKDISTTLNADEAVARGCALQCAILSPAFKVREFSVTDAVPFPISLIWNHDSEDTEGVHEVFSRNHAAPFSKVLTFLRRGPFELEAFYSDPQGVPYPEAKIGRFVVQNVSAQKDGEKSRVKVKVRVNTHGIFTISTASMVEKVPTEENEMSSEADMECLNQRPPENPDTDANEKKVDQPPEAKKPKIKVVNVELPIEANLVWQLGKDLLNMYIETEGKMIMQDKLEKERNDAKNAVEEYVYEFRDKLCGPYEKFICEQDHQNFLRLLTETEDWLYEEGEDQAKQAYVDKLEELMKIGTPVKVRFQEAEERPKMFEELGQRLQHYAKIAADFRNKDEKYNHIDESEMKKVEKSVNEVMEWMNNVMNAQAKKSLDQDPVVRAQEIKTKIKELNNTCEPVVTQPKPKIESPKLERTPNGPNIDKKEEDLEDKNNFGAEPPHQNGECYPNEKNSVNMDLD
% Aggregation (normalized to GFP-TDP43CTF alone) (GFP-TDP43CTF; Table 12 (FIG. 8/9A)): 115.34%
